Our source for the self-cleavage values is the RNAGym collection of RNA variant scans (doi:10.7554/elife.80360).

First the molecules themselves.
B1: HDV Ribozyme (parent)
chain: GGCCGGCAUGGUCCCAGCCUCCUCGCUGGCGCCGGCUGGGCAACAUUCCGAGGGGACCGUCCCCUCGGUAAUGGCGAAUGGGACCCA

In this data set the parent is B1. Briefly: self-cleavage, relative activity (ratio to wild type); higher = more cleavage; co-transcriptional.
For the variant GGCCGGCAUGUUCGCAGCCUCCUCGCUGGCGCCGGCUGGGCAACAUUCCGAGGGGACCGUCCCCUCGGUAAUGGCGAAUGGGACCCA [G11U C14G], the self-cleavage stood at 0.0692. To GGCCGGCAUGCUCCCAGCCUCCUCGCUGGCGCCGGCUGGGCAACAUUCCGAGGGGACCGUCCCCUCGGUAAUGGCGAAUGCGACCCA [G11C G81C] belongs 0.0519; to GGCCGGCAUGCUCCGAGCCUCCUCGCUGGCGCCGGCUGGGCAACAUUCCGAGGGGACCGUCCCCUCGGUAAUGGCGAAUGGGACCCA [G11C C15G], 0.131.

As for GGCCGGCAUGCUCGCAGCCUCCUCGCUGGCGCCGGCUGGGCAACAUUCCGAGGGGACCGUCCCCUCGGUAAUGGCGAAUGGGACCCA [G11C C14G], the self-cleavage came to 0. Then GGCCGGCAUGUUCCCAGCCUACUCGCUGGCGCCGGCUGGGCAACAUUCCGAGGGGACCGUCCCCUCGGUAAUGGCGAAUGGGACCCA [G11U C21A], with 0.0329. Then GGCCGGCAUGUUCCCAGCCUCCUCGCUGGCGCCGGCUGGGCAACAUUCCGAGGGGGCCGUCCCCUCGGUAAUGGCGAAUGGGACCCA [G11U A56G], with 0.378; and GGCCGGCAUGUUCCCAGCCUCCUCGCUGGCGCCGGCUGGGCAACAUUCCGAGGGGUCCGUCCCCUCGGUAAUGGCGAAUGGGACCCA [G11U A56U], with 0.391. To GGCCGGCAUGUUCCCAGACUCCUCGCUGGCGCCGGCUGGGCAACAUUCCGAGGGGACCGUCCCCUCGGUAAUGGCGAAUGGGACCCA [G11U C18A] belongs 0.0674; to GGCCGGCAUGUUCCCAGUCUCCUCGCUGGCGCCGGCUGGGCAACAUUCCGAGGGGACCGUCCCCUCGGUAAUGGCGAAUGGGACCCA [G11U C18U], 0.0504. Consider GGCCGGCAUGCUCCCAGCCUCCUCGCUGGCGCCGGCUGGGCAACAUUCCGAGGGGACCGUCCCCUCGGUAACGGCGAAUGGGACCCA [G11C U72C], for which the self-cleavage came out at 0.119. To GGCCGGCAUGCUCCCAGCCUCCUCGCUGGCGCCGGCUGGGCAACAUUCCGAGGGGACCGUCCCCUCGGUAAGGGCGAAUGGGACCCA [G11C U72G] belongs 0; to GGCCGGCAUGCUCCCAGCCUCCUCGCUGGCGCCGGCUGGGCAACAUUCCGAGGGGACCGUCCCCUCGGUAAUGGCGAAUUGGACCCA [G11C G80U], 0.0621; to GGCCGGCAUGCUCCCAGCCUCCUCGCUGGCGCCGGCUGGGCAACAUUCCGAGGGGACCGUCCCCUCGGUAAUGGCGAAUCGGACCCA [G11C G80C], 0.295. Then GGCCGGCAUGCUCCCAGCCUCCUCGCUGGCGCCGGCUGGGCAACAUUCCGAGGGGACCGUCCCCUCGGUAAUGGCGAAUGGGCCCCA [G11C A83C], with 0.158; and GGCCGGCAUGCUCCCAGCCUCCUCGCUGGCGCCGGCUGGGCAACAUUCCGAGGGGACCGUCCCCUCGGUAAUGGCGAAUGGGGCCCA [G11C A83G], with 0.123. To GGCCGGCAUGCUCCCAGCCUCCUCGCUGGCGCCGGCUGGUCAACAUUCCGAGGGGACCGUCCCCUCGGUAAUGGCGAAUGGGACCCA [G11C G40U] belongs 0.189. Regarding GGCCGGCAUGCUCCCAGCCUCCUCGCUGGCGCCGGCUGGGCAACAUUCCGAGGUGACCGUCCCCUCGGUAAUGGCGAAUGGGACCCA [G11C G54U], the self-cleavage stood at 0.289. To GGCCGGCAUGCUCCCAGCCUCCUCGCUGUCGCCGGCUGGGCAACAUUCCGAGGGGACCGUCCCCUCGGUAAUGGCGAAUGGGACCCA [G11C G29U] belongs 0.0225; to GGCCGGCAUGCUCCCAGCCUCCUCGCUGGCGCCGGCUGGGCAACAUUCCGAGGGGACCGUCCCCUCGGUAAUGACGAAUGGGACCCA [G11C G74A], 0.117. To GGCCGGCAUGCUCCCAGCCUCCCCGCUGGCGCCGGCUGGGCAACAUUCCGAGGGGACCGUCCCCUCGGUAAUGGCGAAUGGGACCCA [G11C U23C] belongs 0.277; to GGCCGGCAUGUUCCCAGCCUCCUCGCUGGCGCCGGCUGGGCAACAUUCCGAGGGGACCGUCCCCUCGGUAAUGGCGCAUGGGACCCA [G11U A77C], 0.0652. To GGCCGGCAUGUUCCCAGCCUCCUCGCUGGCGCCGGCUGGGCAACAUUCCGAGGGGACCGUCCCCUCGGUAAUGGCGUAUGGGACCCA [G11U A77U] belongs 0.0906; to GGCCGGCAUGUUCCCAGCCUCCUCGCUGGCGCCGGCUGGGCAUCAUUCCGAGGGGACCGUCCCCUCGGUAAUGGCGAAUGGGACCCA [G11U A43U], 0.0893.

Turning to GGCCGGCAUGCUCCCAGGCUCCUCGCUGGCGCCGGCUGGGCAACAUUCCGAGGGGACCGUCCCCUCGGUAAUGGCGAAUGGGACCCA [G11C C18G], the self-cleavage stood at 0. GGCCGGCAUGUUCCCAGCCUCCUCGCUGGCGCCGGCUGGGCAACAUUCCGAGGGGACCGUCCCCUCGGUAAUGGCGAAUGGGACCCC [G11U A87C]: the self-cleavage was 0.415. Consider GGCCGGCAUGCUCCCAGCCUCCUCGCUGGCGCCGGCUGGGCAACAUUCCAAGGGGACCGUCCCCUCGGUAAUGGCGAAUGGGACCCA [G11C G50A], for which the self-cleavage is 0.271. To GGCCGGCAUGCUCCCAGCCUCCUCGCUGGCGCCGGCUGGGCAACAUUCCUAGGGGACCGUCCCCUCGGUAAUGGCGAAUGGGACCCA [G11C G50U] belongs 0.54.

Consider GGCCGGCAUGCUCCCAGCCUCCUCGCUGGCGCCGGCUGGGCAACAUUCCGACGGGACCGUCCCCUCGGUAAUGGCGAAUGGGACCCA [G11C G52C], for which the self-cleavage was found to be 0.266.

Take GGCCGGCAUGCUCCCAGCCUCCUCGCUGGCGCCAGCUGGGCAACAUUCCGAGGGGACCGUCCCCUCGGUAAUGGCGAAUGGGACCCA [G11C G34A]: the self-cleavage stood at 0.108. To GGCCGGCAUGUUCCCAGCCUCCUGGCUGGCGCCGGCUGGGCAACAUUCCGAGGGGACCGUCCCCUCGGUAAUGGCGAAUGGGACCCA [G11U C24G] belongs 0.0966; to GGCCGGCAUGUUCCCAGCCUCCUUGCUGGCGCCGGCUGGGCAACAUUCCGAGGGGACCGUCCCCUCGGUAAUGGCGAAUGGGACCCA [G11U C24U], 0.111.

Turning to GGCCGGCAUGCUCCCAGCCUCCUCGUUGGCGCCGGCUGGGCAACAUUCCGAGGGGACCGUCCCCUCGGUAAUGGCGAAUGGGACCCA [G11C C26U], the self-cleavage came out at 0.895.
